From PMC9385847

Molecular target: endogenous mTOR (mechanistic target of rapamycin) (mouse (endogenous in brain and MEFs)) (UniProt Q9JLN9)
Experiment: co-IP; anti-mTOR on Protein G beads; whole brain lysates of wild type or Thorase KO mice in buffer A, 1% Triton X-100, with or without 2 mM ADP, ATP or ATPγS, 4 °C; immunoblot

## endogenous S6K (from UniProt Q8BSK8 1-525) (enzyme)
  percent dissociated from mTOR (Thorase KO brain): 20%
  percent dissociated from mTOR (wild type brain): 80%
